Measured values from IntAct's records for PubMed 35512704.

B1: Speckle-type POZ protein (Homo sapiens), O43791 (parent)
chain: MSRVPSPPPPAEMSSGPVAESWCYTQIKVVKFSYMWTINNFSFCREEMGEVIKSSTFSSGANDKLKWCLRVNPKGLDEESKDYLSLYLLLVSCPKSEVRAKFKFSILNAKGEETKAMESQRAYRFVQGKDWGFKKFIRRDFLLDEANGLLPDDKLTLFCEVSVVQDSVNISGQNTMNMVKVPECRLADELGGLWENSRFTDCCLCVAGQEFQAHKAILAARSPVFSAMFEHEMEESKKNRVEINDVEPEVFKEMMCFIYTGKAPNLDKMADDLLAAADKYALERLKVMCEDALCSNLSVENAAEILILADLHSADQLKTQAVDFINYHASDVLETSGWKSMVVSHPHLVAEAYRSLASAQCPFLGPPRKRLKQS
partner: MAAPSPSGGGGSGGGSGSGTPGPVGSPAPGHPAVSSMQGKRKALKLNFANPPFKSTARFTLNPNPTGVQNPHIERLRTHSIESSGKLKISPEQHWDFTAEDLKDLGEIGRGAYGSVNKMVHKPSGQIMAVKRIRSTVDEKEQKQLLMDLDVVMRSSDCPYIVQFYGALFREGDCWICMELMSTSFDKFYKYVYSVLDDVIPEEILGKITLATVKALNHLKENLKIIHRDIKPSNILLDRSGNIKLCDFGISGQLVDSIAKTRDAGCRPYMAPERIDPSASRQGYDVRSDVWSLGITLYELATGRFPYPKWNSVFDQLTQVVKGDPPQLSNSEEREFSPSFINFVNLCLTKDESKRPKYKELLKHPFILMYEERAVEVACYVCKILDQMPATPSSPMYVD
B2: Speckle-type POZ protein (Homo sapiens), O43791 (parent)
chain: B1 chain
partner: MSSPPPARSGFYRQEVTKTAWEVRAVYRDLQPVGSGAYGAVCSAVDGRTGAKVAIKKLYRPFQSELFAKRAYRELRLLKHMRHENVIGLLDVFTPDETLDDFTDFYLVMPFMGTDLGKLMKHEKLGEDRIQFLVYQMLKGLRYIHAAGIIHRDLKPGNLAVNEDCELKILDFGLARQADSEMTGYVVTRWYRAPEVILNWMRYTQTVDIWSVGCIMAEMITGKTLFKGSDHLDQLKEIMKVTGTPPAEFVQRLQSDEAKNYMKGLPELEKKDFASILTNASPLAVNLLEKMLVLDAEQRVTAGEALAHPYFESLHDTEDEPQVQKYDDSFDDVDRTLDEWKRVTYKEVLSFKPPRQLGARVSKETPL
B3: Speckle-type POZ protein (Homo sapiens), O43791 (parent)
chain: B1 chain
partner: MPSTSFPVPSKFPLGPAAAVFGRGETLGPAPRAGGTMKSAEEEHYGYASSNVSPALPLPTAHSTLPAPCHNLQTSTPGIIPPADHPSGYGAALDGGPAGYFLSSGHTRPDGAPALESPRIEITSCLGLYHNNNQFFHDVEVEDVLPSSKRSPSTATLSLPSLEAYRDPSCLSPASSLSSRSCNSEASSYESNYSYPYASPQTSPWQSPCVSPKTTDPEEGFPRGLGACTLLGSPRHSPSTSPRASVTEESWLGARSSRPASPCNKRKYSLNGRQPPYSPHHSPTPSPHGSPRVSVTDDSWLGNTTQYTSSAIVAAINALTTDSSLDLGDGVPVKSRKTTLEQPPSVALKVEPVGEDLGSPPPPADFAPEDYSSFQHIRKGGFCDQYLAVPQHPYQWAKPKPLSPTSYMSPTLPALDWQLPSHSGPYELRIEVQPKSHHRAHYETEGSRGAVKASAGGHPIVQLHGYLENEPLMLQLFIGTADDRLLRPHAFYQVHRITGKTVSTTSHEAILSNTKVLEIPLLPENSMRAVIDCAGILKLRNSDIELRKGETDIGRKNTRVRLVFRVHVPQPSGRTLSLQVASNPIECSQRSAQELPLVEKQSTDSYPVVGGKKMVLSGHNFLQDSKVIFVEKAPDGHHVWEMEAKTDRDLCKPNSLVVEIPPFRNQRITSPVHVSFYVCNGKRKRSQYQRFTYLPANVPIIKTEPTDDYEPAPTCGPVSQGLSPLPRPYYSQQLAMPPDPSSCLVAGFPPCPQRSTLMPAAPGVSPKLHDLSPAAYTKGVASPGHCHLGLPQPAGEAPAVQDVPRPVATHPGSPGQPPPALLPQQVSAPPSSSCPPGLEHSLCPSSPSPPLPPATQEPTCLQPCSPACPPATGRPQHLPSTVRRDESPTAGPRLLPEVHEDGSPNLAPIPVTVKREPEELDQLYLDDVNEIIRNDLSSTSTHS
B4: Speckle-type POZ protein (Homo sapiens), O43791 (parent)
chain: B1 chain
partner: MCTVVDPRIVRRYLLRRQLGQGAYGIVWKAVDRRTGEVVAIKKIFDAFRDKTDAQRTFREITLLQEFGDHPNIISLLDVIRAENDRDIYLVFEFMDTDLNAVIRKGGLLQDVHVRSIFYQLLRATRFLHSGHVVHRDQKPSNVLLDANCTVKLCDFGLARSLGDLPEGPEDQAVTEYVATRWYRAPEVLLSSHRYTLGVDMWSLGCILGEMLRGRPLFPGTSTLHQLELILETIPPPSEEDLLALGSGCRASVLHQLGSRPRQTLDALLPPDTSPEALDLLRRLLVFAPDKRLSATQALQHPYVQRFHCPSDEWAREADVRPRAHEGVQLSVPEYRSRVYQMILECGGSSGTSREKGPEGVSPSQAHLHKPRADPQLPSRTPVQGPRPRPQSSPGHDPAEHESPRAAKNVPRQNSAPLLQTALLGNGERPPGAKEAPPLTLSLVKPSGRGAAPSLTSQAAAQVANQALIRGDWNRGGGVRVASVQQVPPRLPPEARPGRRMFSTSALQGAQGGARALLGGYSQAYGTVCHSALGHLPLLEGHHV
B5: Speckle-type POZ protein (Homo sapiens), O43791 (parent)
chain: B1 chain
partner: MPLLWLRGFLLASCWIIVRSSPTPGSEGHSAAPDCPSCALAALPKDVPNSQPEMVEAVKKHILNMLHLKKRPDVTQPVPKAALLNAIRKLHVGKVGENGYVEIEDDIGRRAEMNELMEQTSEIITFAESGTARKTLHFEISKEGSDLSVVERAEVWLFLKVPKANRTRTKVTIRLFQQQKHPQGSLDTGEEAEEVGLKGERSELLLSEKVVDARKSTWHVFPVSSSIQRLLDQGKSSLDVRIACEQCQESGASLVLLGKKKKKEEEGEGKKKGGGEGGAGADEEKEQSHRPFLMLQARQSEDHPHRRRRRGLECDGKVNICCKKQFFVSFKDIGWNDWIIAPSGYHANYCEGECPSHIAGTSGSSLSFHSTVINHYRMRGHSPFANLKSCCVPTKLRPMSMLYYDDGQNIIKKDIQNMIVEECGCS
B6: Speckle-type POZ protein (Homo sapiens), O43791 (parent)
chain: B1 chain
partner: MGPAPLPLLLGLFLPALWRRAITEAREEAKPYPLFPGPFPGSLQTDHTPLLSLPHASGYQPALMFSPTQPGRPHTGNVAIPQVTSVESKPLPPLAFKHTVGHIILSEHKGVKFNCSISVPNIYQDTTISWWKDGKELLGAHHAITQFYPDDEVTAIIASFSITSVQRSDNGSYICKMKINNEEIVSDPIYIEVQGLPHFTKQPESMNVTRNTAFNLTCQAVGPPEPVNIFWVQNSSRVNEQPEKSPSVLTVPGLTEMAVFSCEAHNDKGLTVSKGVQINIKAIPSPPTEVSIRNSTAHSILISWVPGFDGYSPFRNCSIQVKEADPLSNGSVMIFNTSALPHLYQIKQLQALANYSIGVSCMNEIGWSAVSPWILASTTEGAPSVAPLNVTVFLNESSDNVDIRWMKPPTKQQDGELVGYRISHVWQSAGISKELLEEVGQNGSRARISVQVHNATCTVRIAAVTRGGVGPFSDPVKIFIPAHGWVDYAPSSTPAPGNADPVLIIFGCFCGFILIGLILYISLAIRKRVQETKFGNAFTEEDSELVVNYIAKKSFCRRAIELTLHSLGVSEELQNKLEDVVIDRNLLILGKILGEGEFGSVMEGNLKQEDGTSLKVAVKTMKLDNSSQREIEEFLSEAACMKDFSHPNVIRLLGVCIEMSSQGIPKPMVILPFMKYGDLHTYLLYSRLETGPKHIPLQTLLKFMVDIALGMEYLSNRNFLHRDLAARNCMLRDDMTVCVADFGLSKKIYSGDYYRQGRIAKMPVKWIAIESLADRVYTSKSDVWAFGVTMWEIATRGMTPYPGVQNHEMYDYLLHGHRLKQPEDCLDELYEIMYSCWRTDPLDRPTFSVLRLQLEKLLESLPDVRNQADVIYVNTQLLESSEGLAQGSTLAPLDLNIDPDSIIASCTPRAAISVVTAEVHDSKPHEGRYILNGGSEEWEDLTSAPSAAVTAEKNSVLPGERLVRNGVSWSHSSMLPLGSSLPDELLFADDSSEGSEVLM
B7: Speckle-type POZ protein (Homo sapiens), O43791 (parent)
chain: B1 chain
partner: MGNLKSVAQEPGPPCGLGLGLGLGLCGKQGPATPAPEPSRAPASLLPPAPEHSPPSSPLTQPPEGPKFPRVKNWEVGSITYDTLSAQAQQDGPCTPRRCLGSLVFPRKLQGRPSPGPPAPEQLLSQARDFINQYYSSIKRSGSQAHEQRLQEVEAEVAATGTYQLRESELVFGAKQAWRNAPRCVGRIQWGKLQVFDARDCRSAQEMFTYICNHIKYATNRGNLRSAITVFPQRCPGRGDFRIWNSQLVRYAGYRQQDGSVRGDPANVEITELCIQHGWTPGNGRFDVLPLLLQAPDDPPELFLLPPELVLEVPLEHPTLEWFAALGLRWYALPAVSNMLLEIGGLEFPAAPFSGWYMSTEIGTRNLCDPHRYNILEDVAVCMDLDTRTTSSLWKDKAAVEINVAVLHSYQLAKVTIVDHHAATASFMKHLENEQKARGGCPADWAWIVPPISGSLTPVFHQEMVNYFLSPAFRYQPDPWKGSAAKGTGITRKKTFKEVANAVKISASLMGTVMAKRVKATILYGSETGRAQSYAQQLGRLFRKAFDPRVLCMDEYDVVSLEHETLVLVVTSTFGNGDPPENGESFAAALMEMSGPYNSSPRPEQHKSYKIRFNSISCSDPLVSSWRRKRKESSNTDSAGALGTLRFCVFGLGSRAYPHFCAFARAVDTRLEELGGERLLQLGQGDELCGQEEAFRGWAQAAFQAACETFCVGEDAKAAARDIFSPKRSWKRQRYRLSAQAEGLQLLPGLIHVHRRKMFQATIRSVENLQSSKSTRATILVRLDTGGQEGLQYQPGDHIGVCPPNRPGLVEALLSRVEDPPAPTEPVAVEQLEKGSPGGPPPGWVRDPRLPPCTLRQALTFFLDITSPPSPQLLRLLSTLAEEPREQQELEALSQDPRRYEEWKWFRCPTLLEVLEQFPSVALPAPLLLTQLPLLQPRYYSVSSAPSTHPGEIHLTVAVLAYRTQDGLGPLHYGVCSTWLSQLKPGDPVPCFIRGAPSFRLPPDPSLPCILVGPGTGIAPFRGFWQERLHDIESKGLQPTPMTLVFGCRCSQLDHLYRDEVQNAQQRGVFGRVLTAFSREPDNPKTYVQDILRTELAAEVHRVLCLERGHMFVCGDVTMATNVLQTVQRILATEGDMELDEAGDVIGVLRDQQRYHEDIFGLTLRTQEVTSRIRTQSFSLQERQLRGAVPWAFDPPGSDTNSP

Variants of: B1
Settings: with mp2k4_human MAP2K4, P45985

effect of a mutation on the interaction | Variant
with no effect | F102C

Variants of: B2
Settings: with mk12_human MAPK12, P53778

effect of a mutation on the interaction | Variant
with no effect | F133V

Variants of: B2
Settings: with mk12_human MAPK12, P53778
Remark: another data set of the same source

effect of a mutation on the interaction | Variant
with no effect | F133L

Variants of: B2
Settings: with mk12_human MAPK12, P53778
Remark: another data set of the same source

effect of a mutation on the interaction | Variant
with no effect | Y87C

Variants of: B2
Settings: with mk12_human MAPK12, P53778
Remark: another data set of the same source

effect of a mutation on the interaction | Variant
with no effect | F102C

Variants of: B3
Settings: with nfac1_human NFATC1, O95644

effect of a mutation on the interaction | Variant
with no effect | Y87C

Variants of: B3
Settings: with nfac1_human NFATC1, O95644
Remark: another data set of the same source

effect of a mutation on the interaction | Variant
with no effect | F102C

Variants of: B3
Settings: with nfac1_human NFATC1, O95644
Remark: another data set of the same source

effect of a mutation on the interaction | Variant
with no effect | F133V

Variants of: B3
Settings: with nfac1_human NFATC1, O95644
Remark: another data set of the same source

effect of a mutation on the interaction | Variant
with no effect | F133L

Variants of: B4
Settings: with mk15_human MAPK15, Q8TD08

Variant | effect of a mutation on the interaction
F102C | with no effect

Variants of: B4
Settings: with mk15_human MAPK15, Q8TD08
Remark: another data set of the same source

Variant | effect of a mutation on the interaction
Y87C | with no effect

Variants of: B4
Settings: with mk15_human MAPK15, Q8TD08
Remark: another data set of the same source

Variant | effect of a mutation on the interaction
F133L | with no effect

Variants of: B4
Settings: with mk15_human MAPK15, Q8TD08
Remark: another data set of the same source

Variant | effect of a mutation on the interaction
F133V | with no effect

Variants of: B5
Settings: with inhba_human INHBA

effect of a mutation on the interaction | Variant
with no effect | F133L

Variants of: B5
Settings: with inhba_human INHBA
Remark: another data set of the same source

effect of a mutation on the interaction | Variant
with no effect | F133V

Variants of: B5
Settings: with inhba_human INHBA
Remark: another data set of the same source

effect of a mutation on the interaction | Variant
with no effect | F102C

Variants of: B5
Settings: with inhba_human INHBA
Remark: another data set of the same source

effect of a mutation on the interaction | Variant
with no effect | Y87C

Variants of: B6
Settings: with mertk_human MERTK

effect of a mutation on the interaction | Variant
with no effect | F133V

Variants of: B6
Settings: with mertk_human MERTK
Remark: another data set of the same source

effect of a mutation on the interaction | Variant
with no effect | F133L

Variants of: B6
Settings: with mertk_human MERTK
Remark: another data set of the same source

effect of a mutation on the interaction | Variant
with no effect | F102C

Variants of: B6
Settings: with mertk_human MERTK
Remark: another data set of the same source

effect of a mutation on the interaction | Variant
with no effect | Y87C

Variants of: B7
Settings: with nos3_human NOS3, P29474

effect of a mutation on the interaction | Variant
with no effect | Y87C

Variants of: B7
Settings: with nos3_human NOS3, P29474
Remark: another data set of the same source

effect of a mutation on the interaction | Variant
with no effect | F133L
